Data on 16 sequences can be found in the DeepSol protein solubility set.

The nature of this data set: soluble on expression in E. coli; label from the status in PepcDB or PDB records.
For “MDIRKFFGVIPSGKKLVSETVKKNEKTKSDEETLKAKKGIKEIKVNSSRKEDDFKQKQPSKKKRIIYDSDSESEETLQVKNAKKPPEKLPVSSKPGKISRQDPVTYISETDEEDDFMCKKAASKSKENGRSTNSHLGTSNMKKNEENTKTKNKPLSPIKLTPTSVLDYFGTGSVQRSNKKMVASKRKELSQNTDESGLNDEAIAKQLQLDEDAELERQLHEDEEFARTLAMLDEEPKTKKARKDTEAGETFSSVQANLSKAEKHKYPHKVKTAQVSDERKSYSPRKQSKYESSKESQQHSKSSADKIGEVSSPKASSKLAIMKRKEESSYKEIEPVASKRKENAIKLKGETKTPKKTKSSPAKKESVSPEDSEKKRTNYQAYRSYLNREGPKALGSKEIPKGAENCLEGLIFVITGVLESIERDEAKSLIERYGGKVTGNVSKKTNYLVMGRDSGQSKSDKAAALGTKIIDEDGLLNLIRTMPGKKSKYEIAVETEMKKESKLERTPQKNVQGKRKISPSKKESESKKSRPTSKRDSLAKTIKKETDVFWKSLDFKEQVAEETSGDSKARNLADDSSENKVENLLWVDKYKPTSLKTIIGQQGDQSCANKLLRWLRNWQKSSSEDKKHAKFGKFSGKDDGSSFKAALLSGPPGVGKTTTASLVCQELGYSYVELNASDTRSKSSLKAIVAESLNNTSIKGFYSNGAASSVSTKHALIMDEVDGMAGNEDRGGIQELIGLIKHTKIPIICMCNDRNHPKIRSLVHYCFDLRFQRPRVEQIKGAMMSIAFKEGLKIPPPAMNEIILGANQDIRQVLHNLSMWCARSKALTYDQAKADSHRAKKDIKMGPFDVARKVFAAGEETAHMSLVDKSDLFFHDYSIAPLFVQENYIHVKPVAAGGDMKKHLMLLSRAADSICDGDLVDSQIRSKQNWSLLPAQAIYASVLPGELMRGYMTQFPTFPSWLGKHSSTGKHDRIVQDLALHMSLRTYSSKRTVNMDYLSLLRDALVQPLTSQGVDGVQDVVALMDTYYLMKEDFENIMEISSWGGKPSPFSKLDPKVKAAFTRAYNKEAHLTPYSLQAIKASRHSTSPSLDSEYNEELNEDDSQSDEKDQDAIETDAMIKKKTKSSKPSKPEKDKEPRKGKGKSSKK”, the “soluble on expression in E. coli” value is given as “soluble”. The same measure for “MDKGKGSKRSTPSLRAKKKTGTDRQKPSVKQNASQNSKKSSRQKKTPSVGKEREQATDKKREIEKKPQEKTALDEQQRKAQTETISNLEILPDKNPAKMDDGYEDFGPGAAAR”: “not soluble”; for “MDKHQQAIITVSAYITNDTGEVLLVKSYDRSDTWEMPGGQVEPGEPLDRAVHREVYEETGVDIRLIGVSGVYYNETKNIINIVFKATYVKGNVSPQPEEIQKAKFVLIDESNIDEYVTWPHLKSRVLDAMKRECSVPYETWVMNPSRLSARVGR”: “not soluble”; for “MDKILGIKFRDYGQVYYFLAGEAEVSLGDRVIVETDQGQGIGEVIAVRDDRPSDAGDEELQPILRVAEGEDLERAETNEAMGAEAAAYCRECIRARNLDMKLVDVEVFFDLSKLIFYFTAPSRIDFRELVKDLVKHYRTRIELRQIGVRHETQMIGAVGNCGMVCCCRRYLRKFAPVTIKMAKEQNLFLNPAKISGICGRLLCCLSYEQENYEEFHRSCPRLGKKYMTNRGPVKVLRANMFRNSLMAFTDTGEEIEISLDEWQQLDPRRPDQQPQQARPPRRDRPEGGSARDGNGDRAPAPSSDRAAGATGGEAARHGGGRAGERSDRGGRPDRAERADRRGMPHGDVPGSGETPPAGGEAEADAPSLHAAGVEFATEQPAPFDTSPDGGAVMGMEQVEALEHHHHHH”: “not soluble”. For “MDKKTACAHVAEPCEFSYSTRDAIIYALGVGARAKEDLCYVYENHEDFKVLPSYIVAPGFQAHTLMDWPGVEFDLQRVLHGEQYIEVYQPLSAEGKLKSEARVVDILDKGSGALILGNVTTYDENGKKIAMQQFSTFQTGSGNFGGDRTSPHEIKAATVPDRAPDAVIEQKTTVDQAALYRLGSGDMNPLHVDPEFAKMSGFKTPILHGLCSLGFATRHVIAAWAGNDSDKFKAIKVRFSSPVLPGQTLVTETWKNGKRIIFQMKVKETGKIVISNAFIDLHEASELPTVPIDLASKL” the value was “not soluble”.

With “MDKLKVAELFAGVGGFRLGLENTKEKIFDVTWANQWEPSKKIQHAFDCYNSRFITGEHVNKDIALISDEEIANTKADMVVGGFPCQDYSVARSLSGELGIQGKKGVLFWQIIRFIQNTYPKYLLLENVDRLLKSPSSQRGRDFGVMLSTLNELGYNVEWRVINAADYGNAQRRRRVFIFGYKQDLEHHHHHH”, the “soluble on expression in E. coli” value is “soluble”. In the case of “MDKMVSYLFKGEVKNPYVFLVLGKDKEIEHTVRTDVIVVGVLDWKKGNLSFVSIPRDLMIEGKKINAIYNTYGMEKLFQIIESLLGQKPDSYVIFNYEAFKILVDELGPIEVIPNEVMFYEDLSQNLVIDFKPGVPYKLNGEQLLAYIRYRKDSMGDLARIERQKDVLKKLLSKALSRNPLEISVLYKKISPYIETDIGLPEILTLFSKLKNSVRVSFSTLPYNVDSDGSIFVDEKRLVSFKENLIGSSVQEKYRVNFLVVNTSSLVSRVFEANLRGVWKDRVGFEPDRVVWEDVGISQKFEGDHVFIGEPEKEDYILEILRKAHPSRHFTVHRFDRPEDYTMYYTILESLAKNRIYPDFPVSALILIDDFRELEHHHHHH”, the “soluble on expression in E. coli” value is given as “soluble”.

“MDLFPVLKELAQKTPSKILLIVLDGVGGLPLEPGGPTELEAAKTPNLDRLAEESALGLLTPVYPGLAPGSGPGHLALFGYDPFRYVVGRGALSALGLGADFREGDVALRGNFATLDPEGKVVDRRAGRPPTEENQRVVAKLKEAIPRIEDVEVHFYTESEHRFLVVLRGEGLGDAVTDTDPQKTGLPPLKAKALDEASERTARLVNLLSERIREVLKDEPRMNGALFRGASKKPSFPRMQEVYKLTPAAIASYPMYKGLASLVGMEVLPVEGEGDALEGKLKALKENWGRYDFFYFHVKKTDAMGEDGNFHGKVEKVELFDALLPEILALGPDVLAITGDHSTPALLKAHSWHPVPLLLKAPYLRADEARRFTEREAQRGSLGHLRGMELMPLLLAHAGKLLKYGALEHHHHHH”: the “soluble on expression in E. coli” value is “not soluble”. For “MDLKQYITIVPDFPKPGIMFKDITTLMDNGPAYKYATDQIVQYAREKQIEIVVGPEARGFIIGCPVAYALGVGFAPVRKEGKLPREVVRVEYGLEYGTDVLTMHKDAIKPGQRVLITDDLLATGGTMRATIDLVEQLGGVVAGLAFLIELTELGGRKKLEGYDILTLMQF” the value was “soluble”; for “MDLLDKVMGEMGSKPGSTAKKPATSASSTPRTNVWGTAKKPSSQQQPPKPLFTTPGSQQGSLGGRIPKREHTDRTGPDPKRKPLGGLSVPDSFNNFGTFRVQMNAWNLDISKMDERISRIMFRATLVHTDGRRFELSLGVSAFSGDVNRQQRRQAQCLLFRAWFKRNPELFKGMTDPAIAAYDAAETIYVGCSFFDVELTEHVCHLTEADFSPQEWKIVSLISRRSGSTFEIRIKTNPPIYTRGPNALTLENRSELTRIIEAITDQCLHNEKFLLYSSGTFPTKGGDIASPDEVTLIKSGFVKTTKIVDRDGVPDAIMTVDTTKSPFYKDTSLLKFFTAKMDQLTNSGGGPRGHNGGRERRDGGGNSRKYDDRRSPRDGEIDYDERTVSHYQRQFQDERISDGMLNTLKQSLKGLDCQPIHLKDSKANRSIMIDEIHTGTADSVTFEQKLPDGEMKLTSITEYYLQRYNYRLKFPHLPLVTSKRAKCYDFYPMELMSILPGQRIKQSHMTVDIQSYMTGKMSSLPDQHIKQSKLVLTEYLKLGDQPANRQMDAFRVSLKSIQPIVTNAHWLSPPDMKFANNQLYSLNPTRGVRFQTNGKFVMPARVKSVTIINYDKEFNRNVDMFAEGLAKHCSEQGMKFDSRPNSWKKVNLGSSDRRGTKVEIEEAIRNGVTIVFGIIAEKRPDMHDILKYFEEKLGQQTIQISSETADKFMRDHGGKQTIDNVIRKLNPKCGGTNFLIDVPESVGHRVVCNNSAEMRAKLYAKTQFIGFEMSHTGARTRFDIQKVMFDGDPTVVGVAYSLKHSAQLGGFSYFQESRLHKLTNLQEKMQICLNAYEQSSSYLPETVVVYRVGSGEGDYPQIVNEVNEMKLAARKKKHGYNPKFLVICTQRNSHIRVFPEHINERGKSMEQNVKSGTCVDVPGASHGYEEFILCCQTPLIGTVKPTKYTIIVNDCRWSKNEIMNVTYHLAFAHQVSYAPPAIPNVSYAAQNLAKRGHNNYKTHTKLVDMNDYSYRIKEKHEEIISSEEVDDILMRDFIETVSNDLNAMTINGRNFWA”, “not soluble”; for “MDLMAYWLCITNEDNWKVIKEKKIWGVAERYKNTINKVKVGDKLIIYEIQRSGKDYKPPYIRGVYEVVSEVYKDSSKIFKPTPRNPNEKFPYRVKLKEIKVFEPPINFKELIPKLKFITNKKRWSGHLMGKAMREIPEEDYKLIVGN”, “soluble”. The same measure for “MDLSELERDNTGRCRLSSPVPAVCLKEPCVLGVDEAGRGPVLGPMVYAICYCPLSRLADLEALKVADSKTLTENERERLFAKMEEDGDFVGWALDVLSPNLISTSMLGRVKYNLNSLSHDTAAGLIQYALDQNVNVTQVFVDTVGMPETYQARLQQHFPGIEVTVKAKADSLFPVVSAASIFAKVARDKAVKNWQFVENLQDLDSDYGSGYPNDPKTKAWLRKHVDPVFGFPQFVRFSWSTAQAILEKEAEDVIWEDSEAEEDPERPGKITSYFSQGPQTCRPQAPHRYFQERGLEAASSL”: “soluble”. For “MDLSMTTPEEITQYLQDHPEFFEEHPDLLESLRFPHPYEGRVISINERQVAMLREKNKLLQNRLQELIDVGENNDAISEKMHRLTVALLGFGSLPELLHELQYHLCEDFSIPHVVLRLWQIDEFGTEADLPSPEFDPISNNVRILAQGMLRPYCGPEVDDEIRQWFAQDAEYLKSFAVIPLKKQSNFGLLVMASPEAERFYPDMGTLYLERLGDMVSSSIMRLIQQTPGAANRESAS” the value was “not soluble”; for “MDNGTDSSTSKFVPEYRRTNFKNKGRFSADELRRRRDTQQVELRKAKRDEALAKRRNFIPPTDGADSDEEDESSVSADQQFYSQLQQELPQMTQQLNSDDMQEQLSATVKFRQILSREHRPPIDVVIQAGVVPRLVEFMRENQPEMLQLEAAWALTNIASGTSAQTKVVVDADAVPLFIQLLYTGSVEVKEQAIWALGNVAGDSTDYRDYVLQCNAMEPILGLFNSNKPSLIRTATWTLSNLCRGKKPQPDWSVVSQALPTLAKLIYSMDTETLVDACWAISYLSDGPQEAIQAVIDVRIPKRLVELLSHESTLVQTPALRAVGNIVTGNDLQTQVVINAGVLPALRLLLSSPKENIKKEACWTISNITAGNTEQIQAVIDANLIPPLVKLLEVAEYKTKKEACWAISNASSGGLQRPDIIRYLVSQGCIKPLCDLLEIADNRIIEVTLDALENILKMGEADKEARGLNINENADFIEKAGGMEKIFNCQQNENDKIYEKAYKIIETYFGEEEDAVDETMAPQNAGNTFG”, “soluble”; for “MDNPTTPIAVVGPTASGKSALGVSLAHHLNGEVVNVDSMQLYKGMDIGTAKLTLEEREGIVHHLLDVWDISETASVARYQSQAIAVVEDIQRRGKTPILVGGSMLYVQSLVDDWQFPPTDPSVRAKWESKLNEVGVEALHALLAQKDPQAASIIELKDPRRTVRALEVIELTGKPFNASQPPKNAPPRWNTQIIGLGTNTEWLNPRIDLRTELMFEKGFVHEVENLVGKGLIADSTAGHAIGYAQVLQHFAGELSVDEMIEHTKIGTRRYVRRQRSWFKRDPRIHWIDASGDTFSMALSLLS”, “not soluble”. Regarding “MDNSGKEAEAMALLAEAERKVKNSQSFFSGLFGGSSKIEEACEIYARAANMFKMAKNWSAAGNAFCQAAQLHLQLQSKHDAATCFVDAGNAFKKADPQEAINCLMRAIEIYTDMGRFTIAAKHHISIAEIYETELVDIEKAIAHYEQSADYYKGEESNSSANKCLLKVAGYAALLEQYQKAIDIYEQVGTNAMDSPLLKYSAKDYFFKAALCHFCIDMLNAKLAVQKYEELFPAFSDSRECKLMKKLLEAHEEQNVDSYTESVKEYDSISRLDQWLTTMLLRIKKTIQGDEEDLR”, the “soluble on expression in E. coli” value is reported as “soluble”.
